Biological target: Filgrastim (recombinant human granulocyte-colony stimulating factor from Escherichia coli) (human) (UniProt P09919)
Assay: SEC; HP-SEC, TSKgel G3000SWXL, 50 mM ammonium hydrogen carbonate pH 7.0, column 30°C; expired PDgrastim diluted to 0.25 mg/ml in 100 mM sodium acetate pH 5.0; dimer and oligomer assigned by retention relative to the monomer (Ph. Eur.)

relative peak area of dimer: 3.6% | relative peak area of oligomer: 0.1% | stoichiometry N: 2
Substance: Filgrastim (recombinant human granulocyte-colony stimulating factor from Escherichia coli) (from UniProt P09919-2 31-204) (ligand)
